Measurements reported in paper PMC10449828, “Fanconi anemia associated protein 20 (FAAP20) plays an essential role in homology-directed repair of DNA double-strand breaks”.

Tests used:
FANCA;FAAP20 [1] = target: T1, FANCA;FAAP20 (human;human, UniProt O15360;Q6NZ36 1-1455;1-180, |); test: EMSA; fixed suboptimal FANCA, FAAP20 titrated; binding stimulated; EMSA: 125 mM Tris pH 7.5, 5 mM EDTA, 6% glycerol, 1 mM DTT, 100 mM NaCl, 1 nM substrate, RT 45 min; 4% native PAGE in 1x TAE; conditions: protein: recombinant;recombinant; tags: none (native FANCA);C-terminal 6xHis; copies: 1;1; label: 32P 5' (T4 PNK); single strand
FANCA;FAAP20 [2] = target: T1, FANCA;FAAP20; test: EMSA; FANCA 10 nM, FAAP20 9-24 nM; binding stimulated; EMSA: 125 mM Tris pH 7.5, 5 mM EDTA, 6% glycerol, 1 mM DTT, 100 mM NaCl, 1 nM substrate, RT 45 min; 4% native PAGE in 1x TAE; conditions: protein: recombinant;recombinant; tags: none (native FANCA);C-terminal 6xHis; copies: 1;1; label: 32P 5' (T4 PNK); fork, 25 bp duplex; unpaired 3' arm 30 nt (strand 1) and 5' arm 25 nt (strand 2); 1 nt 3' overhang on strand 2 as printed
FANCA;FAAP20;FANCG = FANCA;FAAP20;FANCG (human;human;human, UniProt O15360;Q6NZ36;O15287 1-1455;1-180;1-622, ||); test: EMSA; 10 nM each; slightly additive over FANCA+FANCG or FANCA+FAAP20; EMSA: 125 mM Tris pH 7.5, 5 mM EDTA, 6% glycerol, 1 mM DTT, 100 mM NaCl, 1 nM substrate, RT 45 min; 4% native PAGE in 1x TAE; conditions: protein: recombinant;recombinant;recombinant; tags: none (native FANCA);C-terminal 6xHis;N-terminal 6xHis; label: 32P 5' (T4 PNK); single strand
FAAP20 = target: T2, FAAP20 (human, UniProt Q6NZ36 1-180); test: EMSA; FAAP20 9-24 nM; EMSA: 125 mM Tris pH 7.5, 5 mM EDTA, 6% glycerol, 1 mM DTT, 100 mM NaCl, 1 nM substrate, RT 45 min; 4% native PAGE in 1x TAE; conditions: protein: recombinant; tags: C-terminal 6xHis; label: 32P 5' (T4 PNK); single strand
T2 sequence: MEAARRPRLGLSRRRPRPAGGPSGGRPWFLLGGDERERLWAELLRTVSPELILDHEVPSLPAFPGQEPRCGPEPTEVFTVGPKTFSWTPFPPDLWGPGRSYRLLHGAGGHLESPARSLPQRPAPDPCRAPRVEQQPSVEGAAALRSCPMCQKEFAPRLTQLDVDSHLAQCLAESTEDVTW

FANCA;FANCG = FANCA;FANCG (human;human, UniProt O15360;O15287 1-1455;1-622, |); test: EMSA; 10 nM each; higher affinity than FANCA alone; EMSA: 125 mM Tris pH 7.5, 5 mM EDTA, 6% glycerol, 1 mM DTT, 100 mM NaCl, 1 nM substrate, RT 45 min; 4% native PAGE in 1x TAE; conditions: protein: recombinant;recombinant; tags: none (native FANCA);N-terminal 6xHis; copies: 1;1; label: 32P 5' (T4 PNK); single strand
FANCA;FAAP20 [3] = target: T1, FANCA;FAAP20; test: EMSA; FANCA 10 nM, FAAP20 9-24 nM; FAAP20 increases FANCA affinity; EMSA: 125 mM Tris pH 7.5, 5 mM EDTA, 6% glycerol, 1 mM DTT, 100 mM NaCl, 1 nM substrate, RT 45 min; 4% native PAGE in 1x TAE; conditions: protein: recombinant;recombinant; tags: none (native FANCA);C-terminal 6xHis; copies: 1;1; label: 32P 5' (T4 PNK); single strand

T1 sequence (O15360 whole entry, one chain of several): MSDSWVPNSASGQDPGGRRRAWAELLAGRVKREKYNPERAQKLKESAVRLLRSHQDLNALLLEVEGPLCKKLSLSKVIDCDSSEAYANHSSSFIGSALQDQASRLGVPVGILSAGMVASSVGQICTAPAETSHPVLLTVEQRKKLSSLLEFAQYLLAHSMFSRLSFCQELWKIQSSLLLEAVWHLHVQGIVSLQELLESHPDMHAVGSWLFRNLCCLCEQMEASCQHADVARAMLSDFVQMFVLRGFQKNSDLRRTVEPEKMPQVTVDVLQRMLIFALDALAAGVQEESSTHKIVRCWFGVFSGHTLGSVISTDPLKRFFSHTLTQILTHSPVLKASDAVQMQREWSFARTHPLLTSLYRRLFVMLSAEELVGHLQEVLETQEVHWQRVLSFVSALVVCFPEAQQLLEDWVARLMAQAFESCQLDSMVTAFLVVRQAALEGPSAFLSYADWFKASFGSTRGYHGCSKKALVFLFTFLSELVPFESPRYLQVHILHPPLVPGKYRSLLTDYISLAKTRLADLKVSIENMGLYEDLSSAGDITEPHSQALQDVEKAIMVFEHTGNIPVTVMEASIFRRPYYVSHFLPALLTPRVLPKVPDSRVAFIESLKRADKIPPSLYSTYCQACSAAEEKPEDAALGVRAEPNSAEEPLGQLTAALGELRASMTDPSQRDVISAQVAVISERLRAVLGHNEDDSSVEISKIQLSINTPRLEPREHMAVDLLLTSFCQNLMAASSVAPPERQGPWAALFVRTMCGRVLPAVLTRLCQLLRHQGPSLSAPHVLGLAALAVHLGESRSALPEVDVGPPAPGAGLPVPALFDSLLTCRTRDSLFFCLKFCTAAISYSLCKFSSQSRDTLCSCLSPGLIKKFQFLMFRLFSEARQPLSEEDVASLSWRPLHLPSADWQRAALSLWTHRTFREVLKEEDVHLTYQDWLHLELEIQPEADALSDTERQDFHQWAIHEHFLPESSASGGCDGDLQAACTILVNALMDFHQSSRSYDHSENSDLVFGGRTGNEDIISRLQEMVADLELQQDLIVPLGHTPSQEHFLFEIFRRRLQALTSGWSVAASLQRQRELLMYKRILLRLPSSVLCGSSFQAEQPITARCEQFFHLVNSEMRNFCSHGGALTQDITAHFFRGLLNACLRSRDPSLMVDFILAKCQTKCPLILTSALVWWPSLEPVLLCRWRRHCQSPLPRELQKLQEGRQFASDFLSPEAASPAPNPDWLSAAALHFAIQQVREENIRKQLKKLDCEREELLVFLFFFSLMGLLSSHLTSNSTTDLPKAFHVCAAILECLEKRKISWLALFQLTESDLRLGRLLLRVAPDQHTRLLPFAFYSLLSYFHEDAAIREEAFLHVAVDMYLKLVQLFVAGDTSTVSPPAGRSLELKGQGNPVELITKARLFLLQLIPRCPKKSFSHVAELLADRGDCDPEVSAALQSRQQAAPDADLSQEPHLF
Sequence of FANCA;FAAP20;FANCG (O15360 whole entry, chain 1 of 2): as the sequence (O15360 whole entry, one chain of several) above
Sequence of FANCA;FAAP20;FANCG (O15287 whole entry, chain 3 of 2): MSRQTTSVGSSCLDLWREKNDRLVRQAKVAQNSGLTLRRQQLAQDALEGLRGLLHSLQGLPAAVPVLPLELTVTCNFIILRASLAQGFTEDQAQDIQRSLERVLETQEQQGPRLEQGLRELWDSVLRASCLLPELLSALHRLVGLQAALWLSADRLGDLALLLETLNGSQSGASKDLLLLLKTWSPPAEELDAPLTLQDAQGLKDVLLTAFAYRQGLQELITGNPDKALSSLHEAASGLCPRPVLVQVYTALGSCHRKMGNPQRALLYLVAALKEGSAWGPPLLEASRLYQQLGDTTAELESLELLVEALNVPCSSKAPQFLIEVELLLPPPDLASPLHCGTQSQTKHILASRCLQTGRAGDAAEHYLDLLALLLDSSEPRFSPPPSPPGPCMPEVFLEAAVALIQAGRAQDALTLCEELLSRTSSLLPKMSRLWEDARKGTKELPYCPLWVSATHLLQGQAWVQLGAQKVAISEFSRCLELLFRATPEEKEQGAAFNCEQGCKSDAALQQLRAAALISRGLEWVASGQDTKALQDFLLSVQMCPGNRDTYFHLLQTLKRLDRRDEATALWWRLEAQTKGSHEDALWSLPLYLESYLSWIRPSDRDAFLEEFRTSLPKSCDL
Sequence of FANCA;FANCG (O15360 whole entry, chain 1 of 2): as the sequence (O15360 whole entry, one chain of several) above
Sequence of FANCA;FANCG (O15287 whole entry, chain 2 of 2): as the sequence (O15287 whole entry, chain 3 of 2) above

B1: EMSA ssRNA 61-mer (ssRNA)
RNA: GACGCUGCCGAAUUCUACCAGUGCCUUGCUAGGACAUCUUUGCCCACCUGCAGGUUCACCC
- binding result (FANCA;FAAP20 [1]): binds

B2: splayed arm DNA (mixed)
DNA 1: GTCCTCCACCGCAGCCCACCTGCCCACCTTGTTGCTGATCTCAATCAGCTCTGGA
DNA 2: GCTGGCACGGTCGGATTTAAAGTTAGGGCAGGTGGGCTGCGGTGGAGGACG
- binding result (FANCA;FAAP20 [2]): binds

B3: EMSA ssDNA 61-mer (ssDNA)
DNA: GACGCTGCCGAATTCTACCAGTGCCTTGCTAGGACATCTTTGCCCACCTGCAGGTTCACCC
- binding result (FANCA;FAAP20;FANCG): binds
- binding result (FAAP20): no binding
- binding result (FANCA;FANCG): binds
- binding result (FANCA;FAAP20 [3]): binds
